One block for each binder: values may come before it.
What was measured:
Conditions in all cases: both partners purified
[1] = molecular target: T1, full-length wild-type p97 (^FLp97^wt) (UniProt P55072 1-806); assay: pull-down; GST-VIMP variants on glutathione resin, p97 proteins in solution; 20 mM Tris pH 8.0, 150 mM NaCl, 3 mM MgCl2, 10% glycerol, 0.1% Triton X-100, 4 C, 2 mM ATPγS or AMP-PNP (Figures 3b and 4e: AMP-PNP); SDS-PAGE
T1 construct: p97 (valosin-containing protein, VCP), full-length, residues 1-806; also called VCP; valosin-containing protein; source: purified; expression and purification as described previously [13, 42, 44]
T1 sequence (P55072 whole entry, the tested form may be a part): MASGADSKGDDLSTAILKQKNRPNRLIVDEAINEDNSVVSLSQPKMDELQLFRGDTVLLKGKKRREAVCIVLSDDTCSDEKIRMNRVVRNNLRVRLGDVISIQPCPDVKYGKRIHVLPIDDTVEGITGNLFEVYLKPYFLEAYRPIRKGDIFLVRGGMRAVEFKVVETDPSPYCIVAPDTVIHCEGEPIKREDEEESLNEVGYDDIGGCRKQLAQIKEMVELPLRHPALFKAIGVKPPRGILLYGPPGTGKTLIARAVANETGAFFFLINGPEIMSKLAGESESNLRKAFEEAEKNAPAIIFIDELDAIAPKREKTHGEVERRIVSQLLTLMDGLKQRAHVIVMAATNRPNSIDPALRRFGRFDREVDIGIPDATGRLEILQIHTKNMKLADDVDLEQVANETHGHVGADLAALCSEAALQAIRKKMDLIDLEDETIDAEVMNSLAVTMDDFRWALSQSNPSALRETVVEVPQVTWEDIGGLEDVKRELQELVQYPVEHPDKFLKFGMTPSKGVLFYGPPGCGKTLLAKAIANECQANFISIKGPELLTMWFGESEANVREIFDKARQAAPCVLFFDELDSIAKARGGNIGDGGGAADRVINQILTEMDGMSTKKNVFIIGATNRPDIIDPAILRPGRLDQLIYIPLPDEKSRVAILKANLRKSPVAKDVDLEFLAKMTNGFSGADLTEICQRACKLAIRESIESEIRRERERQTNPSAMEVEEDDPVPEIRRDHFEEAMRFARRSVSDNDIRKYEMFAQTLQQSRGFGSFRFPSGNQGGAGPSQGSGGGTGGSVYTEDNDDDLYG

[2] = molecular target: T2, full-length p97 A232E (^FLp97^mt) (UniProt P55072 1-806, A232E); assay: as above
T2 construct: p97 (VCP), full-length, residues 1-806, MSP1-associated mutation A232E; also called FLp97 A232E; pathogenic p97 variant A232E; source: purified; expression and purification as described previously [13, 42, 44]
T2 sequence (P55072 whole entry A232E, the tested form may be a part): as the sequence (P55072 whole entry, the tested form may be a part) above, with A232E counted along it

[3] = molecular target: T3, N-D1 fragment of p97 A232E, long form (^ND1p97^mt, residues 1-480) (UniProt P55072 1-480, A232E); assay: as above
T3 construct: p97 (VCP), N-D1 fragment, residues 1-480, pathogenic mutation A232E; also called ND1p97 A232E (1-480); source: purified; expression and purification as described previously [13, 42, 44]
T3 sequence (P55072 1-480 A232E): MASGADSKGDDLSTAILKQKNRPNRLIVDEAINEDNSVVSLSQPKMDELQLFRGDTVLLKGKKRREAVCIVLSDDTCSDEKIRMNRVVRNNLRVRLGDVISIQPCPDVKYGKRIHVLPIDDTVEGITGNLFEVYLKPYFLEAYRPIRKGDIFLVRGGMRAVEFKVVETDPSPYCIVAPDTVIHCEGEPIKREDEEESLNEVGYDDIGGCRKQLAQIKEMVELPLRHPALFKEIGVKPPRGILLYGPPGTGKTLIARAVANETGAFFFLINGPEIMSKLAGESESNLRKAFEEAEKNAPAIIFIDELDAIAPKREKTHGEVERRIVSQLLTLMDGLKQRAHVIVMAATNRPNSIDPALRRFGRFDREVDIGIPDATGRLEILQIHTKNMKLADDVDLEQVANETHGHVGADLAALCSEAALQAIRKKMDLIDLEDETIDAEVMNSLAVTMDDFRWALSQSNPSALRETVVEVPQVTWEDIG

[4] = molecular target: T4, N-D1 fragment of p97 L198W, long form (^ND1p97^mt, residues 1-480) (UniProt P55072 1-480, L198W); assay: as above
T4 construct: p97 (VCP), N-D1 fragment, residues 1-480, pathogenic mutation L198W; also called ND1p97 L198W (1-480); source: purified; expression and purification as described previously [13, 42, 44]
T4 sequence (P55072 1-480 L198W): as the sequence (P55072 1-480 A232E) above, with L198W, E232A counted along it

[5] = molecular target: T5, N-D1 fragment of p97 R155H, long form (^ND1p97^mt, residues 1-480) (UniProt P55072 1-480, R155H); assay: as above
T5 construct: p97 (VCP), N-D1 fragment, residues 1-480, pathogenic mutation R155H; also called ND1p97 R155H; source: purified; expression and purification as described previously [13, 42, 44]
T5 sequence (P55072 1-480 R155H): as the sequence (P55072 1-480 A232E) above, with R155H, E232A counted along it

[6] = molecular target: T6, full-length p97 R155H (^FLp97^mt) (UniProt P55072 1-806, R155H); assay: as above
T6 construct: p97 (VCP), full-length, residues 1-806, MSP1-associated mutation R155H; also called FLp97 R155H; pathogenic p97 variant R155H; source: purified; expression and purification as described previously [13, 42, 44]
T6 sequence (P55072 whole entry R155H, the tested form may be a part): as the sequence (P55072 whole entry, the tested form may be a part) above, with R155H counted along it

[7] = molecular target: T7, N-D1 fragment of wild-type p97, long form (^ND1p97^wt, residues 1-480) (UniProt P55072 1-480); assay: as above
T7 construct: p97 (VCP), N-D1 fragment, residues 1-480 (the form used in pull-down and ITC); also called N-D1 long; source: purified; expression and purification as described previously [13, 42, 44]
T7 sequence (P55072 1-480): as the sequence (P55072 1-480 A232E) above, with E232A counted along it

[8] = molecular target: T8, full-length p97 L198W (^FLp97^mt) (UniProt P55072 1-806, L198W); assay: as above
T8 construct: p97 (VCP), full-length, residues 1-806, MSP1-associated mutation L198W; also called FLp97 L198W; pathogenic p97 variant L198W; source: purified; expression and purification as described previously [13, 42, 44]
T8 sequence (P55072 whole entry L198W, the tested form may be a part): as the sequence (P55072 whole entry, the tested form may be a part) above, with L198W counted along it

[9] = molecular target: T9, ND1p97wt (N-D1 fragment of wild-type p97, residues 1-480) (UniProt P55072 1-480); assay: ITC; VIMPx titrated into p97; iTC200, 25 C; 50 mM Tris pH 8.0, 150 mM NaCl, 2 mM MgCl2, 5% glycerol; 2 mM ADP in both samples; one-site model
T9 construct: p97 (valosin-containing protein, VCP), N-D1 long fragment, residues 1-480, wild type; also called N-D1 long; ND1p97 (residue 1-480)
T9 sequence (P55072 1-480): as the sequence (P55072 1-480 A232E) above, with E232A counted along it

[10] = molecular target: T10, FLp97wt (full-length wild-type p97, residues 1-806) (UniProt P55072 1-806); assay: ITC; VIMPx titrated into p97; iTC200, 25 C; 50 mM Tris pH 8.0, 150 mM NaCl, 2 mM MgCl2, 5% glycerol; 2 mM AMP-PNP in both samples; one-site model
T10 construct: p97 (valosin-containing protein, VCP), full length, residues 1-806, wild type; also called VCP; valosin-containing protein
T10 sequence (P55072 whole entry, the tested form may be a part): as the sequence (P55072 whole entry, the tested form may be a part) above

[11] = molecular target: T9, ND1p97wt (N-D1 fragment of wild-type …); assay: as above

- binding result [1]: binds
B1: GST-VIMP minimal fragment (A69-E108) (domain or fragment, UniProt Q9BQE4 69-108, looked up)
chain: AVEPDVVVKRQEALAAARLKMQEELNAQVEKHKEKLKQLE
notes: VIMP (selenoprotein S), 40 residues A69-E108; source: held on glutathione resin

- binding result [2]: binds
- binding result [3]: binds
- binding result [4]: binds
- binding result [1]: binds
- binding result [5]: binds
- binding result [6]: binds
- binding result [7]: binds
- binding result [8]: binds
B2: GST-tagged cytosolic segment of VIMP (GST-VIMPc, residues 49-187) (domain or fragment, UniProt Q9BQE4 49-187, looked up)
chain: QKLSARLRALRQRQLDRAAAAVEPDVVVKRQEALAAARLKMQEELNAQVEKHKEKLKQLEEEKRRQKIEMWDSMQEGKSYKGNAKKPQEEDSPGPSTSSVLKRKSDRKPLRGGGYNPLSGEGGGACSWRPGRRGPSSGG
notes: source: held on glutathione resin

- Kd [9]: 6.21 ± 0.85 µM
- stoichiometry N [9]: 1.13 ± 0.06
- Kd [10]: 7 ± 0.13 µM
- stoichiometry N [10]: 0.66 ± 0.08
- Kd [11]: 5.52 ± 0.26 µM
- stoichiometry N [11]: 0.98 ± 0.05
B3: VIMPx (VCP-interacting membrane protein, residues 49-122) (domain or fragment, UniProt Q9BQE4 49-122, looked up)
chain: QKLSARLRALRQRQLDRAAAAVEPDVVVKRQEALAAARLKMQEELNAQVEKHKEKLKQLEEEKRRQKIEMWDSM
notes: VIMP (selenoprotein S), fragment of the cytosolic segment, residues 49-122 (stop codon after M122); also called His-VIMPx; selenoprotein S; source: E. coli BL21(DE3), purified (Ni-NTA, Superdex 75)

From paper PMC5725882 (Cell Discovery, 2017)
